In US20010029022A1 (PHARMACIA AND UPJOHN, published 2001):

B1: GST-HPV31 E7 (other)
chain: MRGETPTLQDYVLDLQPEATDLHCYEQLPDSSDEEDVIDSPAGQAEPDTSNYNIVTFCCQCKSTLRLCVQSTQVDIRILQELLMGSFGIVCPNCSTRL
notes: GST fusion from pGEX-4T-3; also called GST-31E7; not shown: glutathione-S-transferase (GST) moiety of vector pGEX-4T-3, at the amino-terminus
B2: GST-HPV16 E7 (other)
chain: MHGDTPTLHEYMLDLQPETTDLYCYEQLNDSSEEEDEIDGPAGQAEPDRAHYNIVTFCCKCDSTLRLCVQSTHVDIRTLEDLLMGTLGIVCPICSQKP
notes: range 1-98; GST fusion from pGEX-4T-3; also called GST-16E7; full length GST-HPV 16 E7; not shown: glutathione-S-transferase (GST) moiety of vector pGEX-4T-3, at the amino-terminus

Key:
[1] = target: CDK2 kinase complex (cyclin not given) (UniProt P24941 1-298); experiment: cell-based or functional assay
His-p27N = target: T1, His-p27N (human, UniProt P46527 1-101); experiment: GST pull-down on glutathione-agarose beads, SDS-PAGE, Coomassie blue and Western blot
T1 construct: range 1-101; also called amino terminal residues 1-101 from p27; not shown: poly-histidine tag from the expression vector
T1 sequence (P46527 1-101): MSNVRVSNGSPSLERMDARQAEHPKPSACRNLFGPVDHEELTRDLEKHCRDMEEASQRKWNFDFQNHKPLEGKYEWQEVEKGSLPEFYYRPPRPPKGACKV

His-p27C = target: T2, His-p27C (human, UniProt P46527 95-198); experiment: as above
T2 construct: range 95-198; also called carboxy terminal residues 95-198 of p27; not shown: poly-histidine tag from the expression vector
T2 sequence (P46527 95-198): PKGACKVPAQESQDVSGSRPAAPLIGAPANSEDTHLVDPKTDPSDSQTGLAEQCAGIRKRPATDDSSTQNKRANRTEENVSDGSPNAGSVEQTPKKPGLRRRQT

cyclin A/CDK2 complex = cyclin A/CDK2 complex (UniProt P20248 1-432; P24941 1-298); experiment: cell-based or functional assay
cyclin A/CDK2 complex, sequence (P20248 whole entry, one chain of several): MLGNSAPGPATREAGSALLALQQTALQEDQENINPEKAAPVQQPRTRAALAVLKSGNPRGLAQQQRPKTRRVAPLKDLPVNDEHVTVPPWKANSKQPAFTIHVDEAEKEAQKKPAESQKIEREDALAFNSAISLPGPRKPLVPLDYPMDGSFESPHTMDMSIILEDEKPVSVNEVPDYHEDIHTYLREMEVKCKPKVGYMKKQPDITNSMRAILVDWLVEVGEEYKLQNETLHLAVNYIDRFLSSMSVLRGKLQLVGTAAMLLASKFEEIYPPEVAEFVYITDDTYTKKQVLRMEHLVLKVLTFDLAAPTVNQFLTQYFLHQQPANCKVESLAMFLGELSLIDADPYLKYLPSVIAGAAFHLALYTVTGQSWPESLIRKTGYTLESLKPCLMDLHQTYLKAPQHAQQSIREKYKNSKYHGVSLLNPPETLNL

GST-HPV16 E7 = target: B2; experiment: GST pull-down on glutathione-agarose beads, SDS-PAGE, Coomassie blue and Western blot
GST-HPV31 E7 = target: B1; experiment: as above

**Q.** For B1, which “CDK2 histone kinase activity, fold activation” value [1] is on record?
**A.** 12.6 fold

**Q.** Does B1 bind (His-p27N)?
**A.** no binding

**Q.** Does B1 bind (His-p27C)?
**A.** no binding

**Q.** What does the source list for B2?
**A.** cyclinA/CDK2 histone H1 kinase activity (PhosphorImager) (cyclin A/CDK2 complex): 26 fold; CDK2 histone kinase activity, fold activation [1]: 18.2 fold; binding result (His-p27N): no binding; binding result (His-p27C): no binding

B3: His-p21C (other)
chain: GLPKLYLPTGPRRGRDELGGGRRPGTSPALLQGTAEEDHVDLSLSCTLVPRSGEQAEGSPGGPGDSQGRKRRQTSMTDFYHSKRRLIFSKRKP
notes: range 72-164; also called carboxy terminal residues 72-164 of p21; not shown: poly-histidine tag from vector pET15b
**Q.** What does the source list for B3?
**A.** binding result (GST-HPV16 E7): no binding; binding result (GST-HPV31 E7): no binding
